Series [1] deals with chicken CXC receptor 1 (CXCR1). Kind of series: Chicken cCXCR1-mediated calcium release. It is filed as cell-based. The conditions noted are these: 400 ng. As to the method: NIH #373 cells overexpressing the chicken CXC receptor 1 (CXCR1) were exposed to the full-length cCAF molecule, the 15-amino N-terminal peptide of cCAF, or the 28-amino acid C-terminal peptide and calcium release was then measured.

Series [2] concerns chicken chorioallantoic membrane (CAM). The following applies: cited from earlier work.
The subject of series [3] is α-SMA. Kind of series: Immunostaining for α-SMA in granulation tissue of excision wounds. Type of series: in vivo, chicken. The conditions noted are these: 1 μg cCAF every other day; versus vehicle. As to the method:
At the specified time points, chickens were euthanized with sodium pentobarbitol. The wounded wings were collected and fixed for 18 hrs in 4% paraformaldehyde and decalcified for 3 days in 5% formic acid, 2.5% formaldehyde at 4° C. The tissue was embedded in paraffin and sectioned. Sections were stained with Masson Trichrome to visualize interstitial collagen. Other sections were immunolabeled for α-SMA. Sections were deparaffinized with 3×15 min washes in Hemo-De and rehydrated in 5 min washes of ethanol (100%, 95%, 70%, 50%, 30%). After rinsing with PBS, sections were fixed in 2% paraformaldehyde 1 hr. General autofluoresence and non-specific staining were blocked by 30 min in 0.1M glycine in PBS, followed by 30 min in 1% Evans Blue in PBS to quench red blood cell autofluorescence. Sections were incubated with α-SMA antibody in 1% BSA in PBS (1:50) for 2 hr at room temperature. After 3×10 min washes in 0.1% BSA in PBS, the sections were incubated for 40 min with anti-mouse Alexa antibody in 1% BSA in PBS (1:200). They were then washed and mounted with Vectashield.

Series [4] deals with fibroblast-seeded collagen gels. Description: Collagen gel contraction by fibroblasts. Type of series: cell-based, chicken. As to the method:
1.5 ml Vitrogen 100 collagen gels were made in 35 mm plates. Secondary fibroblasts were plated at 0.4×10^6 cells/35 mm plate on top of the gels. After the cells had adhered to the collagen, cCAF was added to experimental plates. The medium was replaced approximately every 16 hr with 1 ml of 199 supplemented with 0.3% tryptose phosphate broth and 2% donor calf serum, and 750 ng cCAF [68 nM] or N-peptide [480 nM] was added to the experimental plates. Control plates contained media only. After 4 days, gels were released. Treatment was continued for 2 more days and gels were photographed every 12 hours. The photographs were used for evaluation of gel contraction by determining the area of the gel using NIH image analysis.

The subject of series [5] is primary chicken embryonic connective tissue fibroblasts. Description: Acridine orange/ethidium bromide staining for apoptotic cells. Type of series: cell-based. The following applies: cCAF-treated fibroblasts. As to the method:
Plates of fibroblasts treated with cCAF as described above were rinsed twice with PBS and incubated in 0.1 mg/ml acridine orange/ethidium bromide in PBS for 1 min. After rinsing twice with PBS and adding a cover slip, the cells were immediately viewed by epifluorescence microscopy and random fields were photographed. The number of cells with blebbing cytoplasm and fragmented nuclei were counted from the entire field of each photograph.

Series [6] has as its system α-SMA. Description: Immunostaining for α-SMA in fibroblast cultures and collagen gel sections. Type of series: cell-based, chicken. As to the method:
Plates of fibroblasts were treated with cCAF as described previously. After 4 days, the cells were rinsed with PBS, fixed in 4% paraformaldehyde, permeabilized with 0.15% Triton X-100 and incubated with PBS containing 0.1M glycine for 10 min. Cells were blocked for 30 min with 10% goat serum in PBS, incubated with mouse anti-α-SMA, to a final IgG concentration of 20 μg/ml, in 1% BSA/PBS for 1hr at room temperature (RT), and washed three times with 0.1% BSA/PBS for 10 min each. The cells were then incubated in goat anti-mouse FITC or sheep anti-mouse Texas Red (1:100) in 1% BSA/PBS for 1 hr at RT, washed three times for 10 min with 0.1% BSA in PBS and mounted with Vectashield. Collagen gels were rinsed with PBS, fixed in 4% paraformaldehyde for 2 hr, washed three times 30 min each with PBS, and incubated for an additional 30 min in PBS containing 0.1M glycine. This treatment was followed by incubation at 4° C. overnight in 15% sucrose and then incubated under the same conditions in 30% sucrose. After a brief rinse with PBS, the gels were frozen in OCT, sections prepared and collected on gelatin-coated slides, rinsed with PBS, fixed in 4% paraformaldehyde for 10 min, and then incubated again in PBS containing 0.1M glycine for 10 min. This was followed by blocking for 30 min with 10% goat serum in PBS, incubation in primary and secondary antibody as described above, and mounting with Vectashield.

The subject of a further series is CEFs. Kind of series: Trypan blue staining for necrotic cells. It is filed as cell-based. The following applies: cCAF-treated fibroblasts. As to the method: The supernatant of treated and untreated CEFs was collected, the cells centrifuged to a pellet and resuspended in a small volume of medium. 1% trypan blue was added to a final concentration of 0.5% trypan blue. Cells were stained for 5min and then counted in a hemocytometer. Necrotic cells stained blue.

Entries after “also recorded” stand apart in the source; their conditions may differ.

B1: cCAF: CXC chemokine chicken Chemotactic and Angiogenic Factor, full-length, SEQ ID NO:2; purified or synthesized (protein)
chain: LSQGRTLVKMGNELRCQCISTHSKFIHPKSIQDVKLTPSGPHCKNVEIIATLKDGREVCLDPTAPWVQLIVKALMAKAQLNSDAPL
modifications: Gallusgallus
notes: purified or synthesized
For the molecule B1, the “time to calcium release” value in series [1] was ≤ 1 min. The calcium release entry in series [1] (NIH #373 cells overexpressing chicken CXCR1) is on record as “induced a rapid (within 1 min.) release of calcium”. The “angiogenesis in the CAM” value in series [2] (high concentrations, in the absence of leukocyte chemotaxis) is reported as “stimulates blood vessel sprouting from the preexisting vessels of the CAM”. For the same molecule, in series [2] (low doses), the “leukocyte chemotaxis in the CAM” value was “chemotactic for monocyte/macrophages and lymphocytes”. Besides, in the series on α-SMA [3], the “cells labeling for α-SMA in granulation tissue, day 3” value is “numerous cells labeling for α-SMA; also recorded: many more cells that label for α-SMA”; the “cells labeling for α-SMA in granulation tissue, day 5” value is given as “many more myofibroblasts than the control wounds; also recorded: many more cells staining for α-SMA”; the “cells labeling for α-SMA in granulation tissue, day 7” value is “continue to have more labeled cells than do control wounds”. Also, in series [4] (750 ng/ml, 4-5 days treatment before release, versus untreated cells), the “contraction of collagen gels after release” value was “much greater contraction; also recorded: stimulated fibroblasts to contract collagen gels more efficiently than untreated cells; also recorded: contracted the gels more tightly than did untreated cells”. The “contraction of fibroblast clusters on collagen” value in series [4] (versus control cells) is “form clusters that are much tighter and generally pull away from the collagen; also recorded: more contracted than clusters in control cells”. For the same molecule, in series [5], the “apoptotic morphology (cytoplasmic blebbing, nuclear fragmentation)” value was “do not show the characteristics of apoptotic cells; also recorded: compact cytoplasm and an intact nucleus characteristic of healthy cells”. In addition, in the series on α-SMA [6] (versus control gels), the “α-SMA immunolabeling of sections of fibroblast-seeded collagen gels” value is “more cells with fibers staining for α-SMA than control gels”. Also, in the series with α-SMA [6] (versus untreated control cells), the “α-SMA immunolabeling of cultured fibroblasts” value is listed as “more fibroblasts are stained for α-SMA; also recorded: many more cells showing intense staining for fiber bundles”. The necrotic cell death result in the series with CEFs is “does not stimulate cell necrosis; also recorded: does not cause cells to undergo necrosis”.

(Values after US6962971B2, “Chemokines and methods for inducing the differentiation of fibroblasts to myofibroblasts” (The Regents of the University of California, priority 2001, dated 2005).)
